Columns and labels:
[1] = tested on: O1 LPS activation of NF-κB in RAW264.7-lux cells; assay: LPS neutralization assay (NF-κB luciferase, RAW264.7-lux), O1 LPS; format: cell-based, murine; conditions: secondary screening
Method in brief: (§1)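 Serially diluted mAbs (human IgG1) pre-mixed 1:1 with LPS at 4 °C for 1 hr, then diluted 1:10 onto RAW264.7-lux cells carrying an NF-κB-driven firefly luciferase; 2.5 h at 37 °C. Luminescence read; % inhibition relative to no-antibody and negative-control mAb wells.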

K. pneumoniae O2 = assay: Mouse protection models (O2), Table 7 summary; format: in vivo, Klebsiella pneumoniae; design: key: +++: Strongly positive activity; +: Positive activity; +/−: Somewhat positive depending upon the test conditions; conditions: mouse pneumonia models
Protocol: As described in more detail in below, anti-O2 LPS mAbs were tested for: 1) binding to O1 and O2 LPS (see Example 5); 2) LPS neutralization (LPS-Neut) against O1 and O2 LPS (see Example 7); 3) OPK against capsule mutant strain 43816ΔcpsB lux (O1) and 8570ΔcpsB lux (O2) (see Example 8); and 4) protective activity in pneumonia models (see Example 9). O2 LPS mAbs were subsequently divided into three classes based on their in vitro activities. Class I mAbs were characterized as Binding (O1+O2+)/OPK (O1−O2+); Class 2 mAbs were characterized as Binding (O1+O2+)/OPK (O1+O2+); and Class III mAbs were characterized as Binding (O1±O2+)/OPK (O1−O2+).
(§2) C57/BL6 mice were obtained from Jackson Laboratories and maintained in a special pathogen-free facility. All animal experiments were conducted in accordance with Institutional Animal Care and Use Committee (IACUC) protocol and guidance. K. pneumoniae strains were grown on agar plates overnight and diluted in saline at proper concentration. The inoculum titer was determined by plating a serial dilution of bacteria onto agar plates prior to and post challenge. In acute pneumonia models, C57/BL6 mice were inoculated with 1e4 to 2e8 colony-forming units (CFU) of K. pneumoniae clinical isolates in 50 μl saline intranasally. Anti-K pneumoniae monoclonal antibodies (mAbs) and human IgG1 control antibodies were given 1-24 hour post bacterial challenge (therapeutic dosing). Mouse survival was monitored daily until up to day 8. Survival data of representative experiments were plotted in Graphpad Prism software.
(§3) Mice were challenged with 2e8 CFU of Klebsiella pneumoniae Carbanpenemase (KPC) strain Kp961842_O2 or with 3e8 CFU of KPC strain Kp977778_O2, followed by the administration of anti-O2 mAbs. When administered at a concentration of 2 mg/kg 1 hour post bacterial infection, Class III anti-O2 LPS mAbs KPN42, KPN179-IgG1, and KPS44v2017 protected mice from lethal bacterial challenge with the multi-drug resistant KPC strains Kp961842_O2 (FIG. 6, left panel, and FIG. 10) and Kp977778_O2 (FIG. 6B, right panel).

O2 LPS = assay: Octet binding assay, O2 LPS; design: species or system Klebsiella pneumoniae; conditions: average; calculated from on-rate and off-rate of Octet sensorgram; read-out: affinity constant (KD) to O2 LPS
Protocol: The interaction of anti-O2 LPS mAbs with O1 and O2 LPS was further tested in solution phase by Octet platform. This platform provides a powerful tool to measure the rate of biomolecular complex formation and complex stability in a more biologically meaningful setting. Briefly, Protein A coated sensors were coated with 0.2 μg/mL anti-O2 LPS mAbs for 10 minutes before being dipped into solution containing 2 μg/mL O1 or O2 LPS in Kinetics buffer (ForteBio, dilute 10× to 1× with PBS). Changes in the number of molecules bound to the biosensor caused a shift in the interference pattern that was recorded in real time. […] The affinity constant (KD) of Class III mAbs to O2 LPS was calculated based on the on-rate and off-rate from Octet sensorgram.

[2] = tested on: O2 LPS activation of NF-κB in RAW264.7-lux cells; assay: LPS neutralization assay (NF-κB luciferase, RAW264.7-lux), O2 LPS; format: cell-based, murine; design: key to LPS Neut O2: +++: Strongly positive activity; +: Positive activity; +/−: Somewhat positive depending upon the test conditions
Method in brief: as §1

KPC strain Kp961842_O2 = assay: Lethal pneumonia model, KPC strain Kp961842_O2; format: in vivo, Klebsiella pneumoniae; conditions: C57/BL6 mice, 2e8 CFU; mAb 2 mg/kg 1 hour post infection; survival
Protocol: as §2, §3

B1: KPN179: Class III anti-O2 antigen human mAb; VH SEQ ID NO: 53, VL SEQ ID NO: 54 (antibody, V domains shown)
VH: EVQVVESGGGLVKPGGSLRLSCAASGFTFNNAWMNWVRQAPGKGLEWVGRIKRKADGETTDYPASVKGRFTVSRDDSKNTIYLQMNSLKTEDTAIYYCTTRIVTTNDYWGQGTLVTVSS
VL: QSALTQPPSVSGSPGQSVTISCTGTSSDVGYYDYVSWYQQHHPGKAPKHMIYDVNKRPSGVPDRFSGSKSGNTASLTISGLQAEDEADYYCCSYAGGDTFVFGTGTKVTVL
modifications: Description of Artificial Sequence: SyntheticKPN179 VH polypeptide; Description of Artificial Sequence: SyntheticKPN179 VL polypeptide
neutralization of LPS-O1 [1]: did not show LPS-neutralizing activity
Mouse protection models (O2) (K. pneumoniae O2): +++
Kd (O2 LPS): 7.98 nM
LPS Neut O2 ([2]; Table 7 summary): +/−
neutralization of LPS-O2 ([2]; secondary screening): did not show LPS-neutralizing activity
protection from lethal bacterial challenge, Kp961842_O2 (KPC strain Kp961842_O2): protected

Source: patent US12312397B2, “Anti-O2 antibodies and uses thereof” (priority 2016, dated 2025)
